± gives the standard deviation.
Assay: protein stability index of a GFP-peptide fusion (GPS, HEK-293T) (PSI 1-6); higher = more stable
Details: c terminus: a fixed tail appended
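Further: 24-mer peptide tiles fused after GFP, lentivirally expressed, FACS-sorted into six equal bins by GFP/DsRed ratio, decoded by Illumina sequencing, PSI is the read-weighted mean bin number.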

Sequence | protein stability index (treatment: DMSO) | protein stability index (treatment: MLN4924 1 uM, 8 h)
KQQNVAHCMLVSNRVSWWGSTLAM [ZBED1] | 2.19 ± 0.37 | 2.03 ± 0.31
LRFCHNNKKAKRYLLHGLECVVAM [EIF5] | 2.14 ± 0.33 | 2.23 ± 0.6
CDKYPHESQLPEEWENNRESLIVF [CPXM2] | 3.68 ± 0.11 | 3.44 ± 0.25
CGVILYILLVGYPPFWDEDQHRLY [CAMK2A] | 2.98 ± 0.6 | 3.24 ± 0.91
KDSYSSRDYPSSRDTRDYAPPPRD [RBMX] | 4.08 ± 0.24 | 4.09 ± 0.6
LVLLIIIGIPLFFLELAVGQRIRR [SLC6A17] | 3.2 ± 0.25 | 3.2 ± 0.5
ESITSAGRDDLESFQLEISGFLKE [FAM98B] | 3.9 ± 0.26 | 4.1 ± 0.28
QALRRLRPRTRKVKSVSPQGNSVD [NCF4] | 4.32 ± 0.46 | 4.63 ± 0.26
TTNVKSASRQKTSLGIELHCNVSN [ZNF396] | 3.39 ± 0.29 | 3.82 ± 0.31
HTPGTPKSAILVPSEKKVAIIRTP [MAP2] | 3.96 ± 0.057 | 4.02 ± 0.2
QGQAAAPASGSGADSEPARHIFSF [TRIM55] | 3.76 ± 0.27 | 3.79 ± 0.3
EIVSIWILSFILAIPEAIGFVMVP [EDNRA] | 2.86 ± 0.18 | 3.03 ± 0.17
LVENIIDIYKQECSSRPLQKGSHP [TRIM63] | 2.36 ± 0.17 | 2.56 ± 0.13
VPDSDIKALTTLCDLADRELVVII [ESRRG] | 2.53 ± 0.38 | 2.6 ± 0.45
PCAAAREGRLERRECGLAAPRFSF [IRX6] | 3.01 ± 0.21 | 2.89 ± 0.4
SLKEELMCLKKNHEEEVSVLRCQL [KRT36] | 3.09 ± 0.31 | 3.23 ± 0.4
DAKDELEERLERCMSIVTSMTAGV [INTS3] | 4.13 ± 0.3 | 4.09 ± 0.33
NIYCLNCEVPTCSLCKVFGAHKDC [TRIM55] | 3.11 ± 0.35 | 3.21 ± 0.48

Sequence | protein stability index (treatment: DMSO) | protein stability index (treatment: MLN4924 1 uM, 8 h)
FQEWEAHRNLSQLPNFAFSVPLAY [TCF25] | 2.73 ± 0.58 | 2.4 ± 0.25
YGFSLKTVQGKKGVYMTDITPQGV [PDZK1] |  | 2.5 ± 0.68
IIKQIPVEQMTKEERQAAQNECQV [NEK8] | 4.93 ± 0.19 | 4.75 ± 0.24
WIQVTSLRIFVWLLLLYFMQVIAI [PHTF1] | 3.08 ± 0.43 | 2.93 ± 0.42
WILLAESNSADDETDDPRRYQKYG [OAS1] | 3.19 ± 0.17 | 3.32 ± 0.21
VPPGDYLFQVVINPNFEVAESDYS [LOXL2] | 2.31 ± 0.37 | 2.12 ± 0.43
TYSLPPFLKAVLRQERVSLYPFQI [CDS1] | 2.19 ± 0.8 | 2.12 ± 0.32
VSDDLSSEEDGEARTQMILLRRSV [PHTF1] | 4.8 ± 0.17 | 5.08 ± 0.15
EAQISDPFAPEPTPPTTTAEIATA [SNAP91] | 5.42 ± 0.28 | 5.46 ± 0.13
AAEYHAQRLKAVIVIQTYYRQWHA [IQUB] | 4.97 ± 0.25 | 4.88 ± 0.32
SLARNPAPGVLTNKRKTYTESYIA [ZC2HC1A] | 3.22 ± 0.21 | 3.23 ± 0.41
PGPASGPGPDTGPDSELSPCIPPG [SPAG8] | 5.4 ± 0.24 | 5.36 ± 0.24
HSYCRMFLQRGADTNLGRLEDGQT [ASB7] | 2.73 ± 0.44 | 2.85 ± 0.48
DKVLRFAQQIRLHHFNSSHLEIDD [MYORG] | 2.93 ± 0.17 | 2.95 ± 0.23
TFPSGSGAHFPQVPGGAVRVAAAA [PI4K2A] | 3.81 ± 0.27 | 3.81 ± 0.32
LGDLLMPTMAPAGQPAPVSMVPPS [SNAP91] | 3.26 ± 0.2 | 3.51 ± 0.18
KLERIARLEDKVKTLKAENAGLSS [JUNB] | 3.85 ± 0.34 | 3.97 ± 0.22
KMIGFPSSAGSVSPRSTSVTTTSS [KRT13] | 4.4 ± 0.067 | 4.16 ± 0.096
